Results: publication PMC5001605 (Nucleic Acids Research, 2016)

B1: Pyrococcus furiosus Kae1 (pfuKae1) (natural protein)
chain: MIALGIEGTAHTLGIGIVTENKVLANVFDTLKTEKGGIHPKEAAEHHAKLLKPLLRKALEEAGVSMEDIDVIAFSQGPGLGPALRVVATAARALAIKYNKPIVGVNHCIAHVEITKMFGVKDPVGLYVSGGNTQVLALEGGRYRVFGETLDIGIGNALDVFARELGLGFPGGPKIEKLALKGEKYIELPYAVKGMDLSFSGLLTEAIRKYKSGKYRVEDLAYSFQETAFAALVEVTERALAHTEKEEVVLVGGVAANNRLREMLRIMAEDRGVKFFVPPYDLCRDNGAMIAYTGLRMYKAGIKFKLEETIVKQKFRTDEVEVVW
B2: Pyrococcus furiosus Pcc1 (pfuPcc1), full-length (natural protein)
chain: MKAKRVQAKIEIEFPSEDVAKVVYEAVLYEHLSVPYRRSEIDFKLEGKKIILDIKATDSSALRGTVNSYLRWIKAAIDVIEV
B3: Methanococcus jannaschii Kae1 (mjKae1), amino acids 1-328 (domain or fragment)
chain: MICLGLEGTAEKTGVGIVTSDGEVLFNKTIMYKPPKQGINPREAADHHAETFPKLIKEAFEVVDKNEIDLIAFSQGPGLGPSLRVTATVARTLSLTLKKPIIGVNHCIAHIEIGKLTTEAEDPLTLYVSGGNTQVIAYVSKKYRVFGETLDIAVGNCLDQFARYVNLPHPGGPYIEELARKGKKLVDLPYTVKGMDIAFSGLLTAAMRAYDAGERLEDICYSLQEYAFSMLTEITERALAHTNKGEVMLVGGVAANNRLREMLKAMCEGQNVDFYVPPKEFCGDNGAMIAWLGLLMHKNGRWMSLDETKIIPNYRTDMVEVNWIKEIK

Experiments:
[1] = target: B2; assay: SEC-MALS
[2] = target: B3; assay: SEC-MALS
[3] = target: B2; assay: SEC-MALS; remark: listed apart in the source
[4] = target: B2; assay: AUC

Binder	stoichiometry N [1]	binding result [2]	stoichiometry N [3]	stoichiometry N [4]
B1	1 Kae1 per Pcc1 (2:2)			
B2		binds		
B3	1 Kae1 per Pcc1 (2:2)		0.5 Kae1 per Pcc1 (1:2)	~1 Kae1 per Pcc1 (2:2)
